Experimental data as given in patent publication US20060153834A1.
No end group written: not given here.

Tests used:
14C-HIgG (human) [1] = assay: secondary screening, batch, HIgG competitive (spiked in MEM)
[2] = target: 14C-Fc fragment of HIgG (human); assay: secondary screening, batch, Fc fragment non-competitive (PBS)
14C-HIgG (human) [3] = assay: secondary screening, batch, HIgG non-competitive (PBS), Micro-BCA
[4] = target: 14C-Fc fragment of HIgG (human); assay: secondary screening, batch, Fc fragment competitive (spiked in MEM)
Human IgG (HIgG) (human) [5] = assay: ratio of ligand to protein at maximum capacity, Ac-HWRGWV resin at 0.080 mmol/g
Human IgG (HIgG) (human) [6] = assay: batch adsorption isotherm, PBS pH 7.4, Ac-HWRGWV resin at 0.080 mmol/g, Langmuir fit
14C-HIgG (human) [7] = assay: second round of secondary screening, batch, non-competitive (PBS)
14C-HIgG (human) [8] = assay: second round of secondary screening, batch, competitive (MEM), 14C counting
Human IgG (HIgG) (human) [9] = assay: batch adsorption isotherm, PBS pH 7.4, peptide resin 0.1 meq/g, direct Langmuir fit
Human IgG (HIgG) (human) [10] = assay: batch adsorption isotherm, PBS pH 7.4, peptide resin 0.1 meq/g, double reciprocal curve
Human IgG (HIgG) (human) [11] = assay: ratio of ligand to protein at maximum capacity, HWRGWV resin at 0.10 mmol/g
Human IgG (HIgG) (human) [12] = assay: ratio of ligand to protein at maximum capacity, HWRGWV resin at 0.22 mmol/g
Human IgG (HIgG) (human) [13] = assay: ratio of ligand to protein at maximum capacity, HWRGWV resin at 0.55 mmol/g
Human IgG (HIgG) (human) [14] = assay: ratio of ligand to protein at maximum capacity, HWRGWV resin at 0.022 mmol/g
Human IgG (HIgG) (human) [15] = assay: ratio of ligand to protein at maximum capacity, HWRGWV resin at 0.040 mmol/g
Human IgG (HIgG) (human) [16] = assay: ratio of ligand to protein at maximum capacity, HWRGWV resin at 0.080 mmol/g
Human IgG (HIgG) (human) [17] = assay: batch adsorption isotherm, PBS pH 7.4, HWRGWV resin at 0.10 mmol/g, Langmuir fit
Human IgG (HIgG) (human) [18] = assay: batch adsorption isotherm, PBS pH 7.4, HWRGWV resin at 0.22 mmol/g, Langmuir fit
Human IgG (HIgG) (human) [19] = assay: batch adsorption isotherm, PBS pH 7.4, HWRGWV resin at 0.55 mmol/g, Langmuir fit
Human IgG (HIgG) (human) [20] = assay: batch adsorption isotherm, PBS pH 7.4, HWRGWV resin at 0.022 mmol/g, Langmuir fit
Human IgG (HIgG) (human) [21] = assay: batch adsorption isotherm, PBS pH 7.4, HWRGWV resin at 0.040 mmol/g, Langmuir fit
Human IgG (HIgG) (human) [22] = assay: batch adsorption isotherm, PBS pH 7.4, HWRGWV resin at 0.080 mmol/g, Langmuir fit

## HRPKIF (peptide)
14C-HIgG (human) [1]
  Bound %: 4.51%
[2]
  Bound %: 21.5%
14C-HIgG (human) [3]
  Bound %: 11.2%
[4]
  Bound %: 24.5%

## HYGLGWA-{Toyopearl AF‑Amino‑650 resin}
14C-HIgG (human) [1]
  Bound %: 14.5%
[2]
  Bound %: 19.8%
14C-HIgG (human) [3]
  Bound %: 17.9%
[4]
  Bound %: 4.91%

## Ac-HWRGWVA-{Toyopearl AF‑Amino‑650 resin} [Ac-HWRGWV]
Human IgG (HIgG) (human) [5]
  peptide/protein, mol/mol: 92 mol/mol
Human IgG (HIgG) (human) [6]
  Kd: 3.8 µM
  qm (maximum capacity): 131 mg/g

## HWIDPLA-{Toyopearl AF‑Amino‑650 resin}
14C-HIgG (human) [7]
  Bound: 9.03%
  Unbound: 91%
14C-HIgG (human) [8]
  Bound: 19.9%
  Unbound: 80.1%

## HPWYVTA-{Toyopearl AF‑Amino‑650 resin}
14C-HIgG (human) [8]
  Bound: 27%
  Unbound: 73%

## HEILYWA-{Toyopearl AF‑Amino‑650 resin}
14C-HIgG (human) [1]
  Bound %: 5.5%
[2]
  Bound %: 18%
14C-HIgG (human) [3]
  Bound %: 9.16%
[4]
  Bound %: 3.2%

## HWGPTKA-{Toyopearl AF‑Amino‑650 resin}
14C-HIgG (human) [7]
  Bound: 14.4%
  Unbound: 85.6%
14C-HIgG (human) [8]
  Bound: 19.9%
  Unbound: 80.1%

## KRGFYYA-{Toyopearl AF‑Amino‑650 resin}
14C-HIgG (human) [8]
  Bound: 17.3%
  Unbound: 82.7%

## HIWA-{Toyopearl AF‑Amino‑650 resin}
14C-HIgG (human) [7]
  Bound: 7.9%
  Unbound: 92.1%
14C-HIgG (human) [8]
  Bound: 12.9%
  Unbound: 87.1%

## HIQLDGA-{Toyopearl AF‑Amino‑650 resin}
14C-HIgG (human) [8]
  Bound: 10%
  Unbound: 90%

## HLKWYAA-{Toyopearl AF‑Amino‑650 resin}
14C-HIgG (human) [8]
  Bound: 23.5%
  Unbound: 76.5%

## HFRRHLA-{Toyopearl AF‑Amino‑650 resin}
14C-HIgG (human) [8]
  Bound: 40.9%
  Unbound: 59.1%
Human IgG (HIgG) (human) [9]
  Kd: 26.4 µM
  qm (maximum capacity): 158 mg/g

## HDVFHTA-{Toyopearl AF‑Amino‑650 resin}
14C-HIgG (human) [8]
  Bound: 8.55%
  Unbound: 91.5%

## HVHYYWA-{Toyopearl AF‑Amino‑650 resin}
14C-HIgG (human) [7]
  Bound: 55.5%
  Unbound: 44.5%
14C-HIgG (human) [8]
  Bound: 43.3%
  Unbound: 56.7%
Human IgG (HIgG) (human) [9]
  Kd: 20.3 µM
  qm (maximum capacity): 129 mg/g

## HYFKFDA-{Toyopearl AF‑Amino‑650 resin}
14C-HIgG (human) [7]
  Bound: 69.3%
  Unbound: 30.7%
14C-HIgG (human) [8]
  Bound: 43.3%
  Unbound: 56.7%
Human IgG (HIgG) (human) [9]
  Kd: 11.4 µM
  qm (maximum capacity): 127 mg/g

## HYIDAKA-{Toyopearl AF‑Amino‑650 resin}
14C-HIgG (human) [8]
  Bound: 8.64%
  Unbound: 91.4%

## YYWLHHA-{Toyopearl AF‑Amino‑650 resin}
14C-HIgG (human) [1]
  Bound %: 41.9%
[2]
  Bound %: 40.4%
14C-HIgG (human) [3]
  Bound %: 91.3%
[4]
  Bound %: 8.85%
Human IgG (HIgG) (human) [9]
  Kd: 0.297 µM
  qm (maximum capacity): 113 mg/g
Human IgG (HIgG) (human) [10]
  Kd: 0.215 µM
  qm (maximum capacity): 95.1 mg/g

## WHWRKRA-{Toyopearl AF‑Amino‑650 resin}
14C-HIgG (human) [1]
  Bound %: 10.9%
[2]
  Bound %: 88.2%
14C-HIgG (human) [3]
  Bound %: 66.2%
[4]
  Bound %: 16.5%
Human IgG (HIgG) (human) [9]
  Kd: 1.39 µM
  qm (maximum capacity): 62.4 mg/g
Human IgG (HIgG) (human) [10]
  Kd: 2.47 µM
  qm (maximum capacity): 81.9 mg/g

## KGEA-{Toyopearl AF‑Amino‑650 resin}
14C-HIgG (human) [7]
  Bound: 6.08%
  Unbound: 93.9%
14C-HIgG (human) [8]
  Bound: 7.34%
  Unbound: 92.7%

## KLQWVHA-{Toyopearl AF‑Amino‑650 resin}
14C-HIgG (human) [8]
  Bound: 12.2%
  Unbound: 87.8%

## HANGFLA-{Toyopearl AF‑Amino‑650 resin}
14C-HIgG (human) [1]
  Bound %: 5.58%
[2]
  Bound %: 10.2%
14C-HIgG (human) [3]
  Bound %: 10.5%
[4]
  Bound %: 25.6%

## HWRGWVA-{Toyopearl AF‑Amino‑650 resin}
14C-HIgG (human) [1]
  Bound %: 24.4%
[2]
  Bound %: 82.5%
14C-HIgG (human) [3]
  Bound %: 62.2%
[4]
  Bound %: 8.13%
Human IgG (HIgG) (human) [11]
  peptide/protein, mol/mol: 112 mol/mol
Human IgG (HIgG) (human) [12]
  peptide/protein, mol/mol: 241 mol/mol
Human IgG (HIgG) (human) [13]
  peptide/protein, mol/mol: 600 mol/mol
Human IgG (HIgG) (human) [14]
  peptide/protein, mol/mol: 21 mol/mol
Human IgG (HIgG) (human) [15]
  peptide/protein, mol/mol: 41 mol/mol
Human IgG (HIgG) (human) [16]
  peptide/protein, mol/mol: 91 mol/mol
Human IgG (HIgG) (human) [17]
  Kd: 10.4 µM
  qm (maximum capacity): 134 mg/g
Human IgG (HIgG) (human) [18]
  Kd: 2.58 µM
  qm (maximum capacity): 137 mg/g
Human IgG (HIgG) (human) [19]
  Kd: 0.947 µM
  qm (maximum capacity): 138 mg/g
Human IgG (HIgG) (human) [20]
  Kd: 30 µM
  qm (maximum capacity): 158 mg/g
Human IgG (HIgG) (human) [21]
  Kd: 20.3 µM
  qm (maximum capacity): 148 mg/g
Human IgG (HIgG) (human) [22]
  Kd: 7.25 µM
  qm (maximum capacity): 132 mg/g
Human IgG (HIgG) (human) [9]
  Kd: 1.33 µM
  qm (maximum capacity): 50 mg/g
Human IgG (HIgG) (human) [10]
  Kd: 2.8 µM
  qm (maximum capacity): 54.8 mg/g

## HFDKGFA-{Toyopearl AF‑Amino‑650 resin}
14C-HIgG (human) [1]
  Bound %: 6.01%
[2]
  Bound %: 12.9%
14C-HIgG (human) [3]
  Bound %: 10.7%
[4]
  Bound %: 4.28%

## HVWQLKA-{Toyopearl AF‑Amino‑650 resin}
14C-HIgG (human) [8]
  Bound: 15.1%
  Unbound: 85%
